In US20230242651A1 (published 2023):

T1: human interleukin-23 receptor (IL23R) (human, UniProt Q5VWK5 24-355, limits assumed)
T1 construct: also called human IL23R
T1 sequence (looked up): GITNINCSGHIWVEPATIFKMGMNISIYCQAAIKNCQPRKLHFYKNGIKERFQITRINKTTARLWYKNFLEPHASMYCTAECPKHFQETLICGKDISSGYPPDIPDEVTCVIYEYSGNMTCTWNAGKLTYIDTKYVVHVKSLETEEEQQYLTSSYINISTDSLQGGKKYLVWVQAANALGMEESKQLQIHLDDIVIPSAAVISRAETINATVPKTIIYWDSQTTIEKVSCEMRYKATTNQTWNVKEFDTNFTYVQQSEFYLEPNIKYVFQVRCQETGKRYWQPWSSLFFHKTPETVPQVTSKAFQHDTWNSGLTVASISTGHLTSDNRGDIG


Columns and labels:
[1] = target: T1, human interleukin-23 receptor (IL23R); test: SPR; KD of the capped scFv over KD of its uncapped counterpart
In short: (§1)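 Humanized rabbit variable domains were made as single-chain variable fragments (scFv) on consensus germline framework pairs, with or without a λ-cap (Vκ framework IV replaced by a Vλ germline sequence). They were expressed in E. coli as inclusion bodies, solubilized and refolded in a generic refolding buffer. Affinity for human IL23R was measured by surface plasmon resonance, giving rate constants and dissociation constant, or the λ-capped over uncapped dissociation-constant ratio.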

[2] = target: T1, human interleukin-23 receptor (IL23R); test: SPR, scFv (summary table)
In short: as §1

[3] = target: T1, human interleukin-23 receptor (IL23R); test: SPR, scFv
In short: as §1

Ratio (capped/uncapped) of KD [1] | Kd [2] | Kd [3] | koff [3] | kon [3] | Binder
 | 0.125 nM | 0.125 nM | 0.000157 s⁻¹ | 1.26e+06 M⁻¹ s⁻¹ | Vκ2/VH4 consensus (uncapped), human IL23R specific scFv (scFv, scFv VL-linker-VH, made in E. coli; Vκ framework IV (uncapped, full consensus); also called Vκ2VH4 uncapped) scFv: DIVMTQSPLSLPVTPGEPASISCQASENIYSFLAWYLQKPGQSPQLLIYSASKLAAGVPDRFSGSGSGTDFTLKISRVEAEDVGVYYCQQTNRYSNPDIYNVFGQGTKVEIKRGGGGSGGGGSGGGGSGGGGSQVQLQESGPGLVKPSETLSLTCTVSGIDFNSNYYMCWIRQPPGKGLEWIGCIYVGSHVNTYYANWAKGRVTISVDTSKNQFSLKLSSVTAADTAVYYCATSGSSVLYFKFWGQGTLVTVSS
 | 0.303 nM | 0.303 nM | 0.000475 s⁻¹ | 1.57e+06 M⁻¹ s⁻¹ | Vκ2/VH5 consensus (uncapped), human IL23R specific scFv (scFv, scFv VL-linker-VH, made in E. coli; Vκ framework IV (uncapped, full consensus); also called Vκ2VH5 uncapped) scFv: DIVMTQSPLSLPVTPGEPASISCQASENIYSFLAWYLQKPGQSPQLLIYSASKLAAGVPDRFSGSGSGTDFTLKISRVEAEDVGVYYCQQTNRYSNPDIYNVFGQGTKVEIKRGGGGSGGGGSGGGGSGGGGSEVQLVQSGAEVKKPGESLKISCKGSGIDFNSNYYMCWVRQMPGKGLEWMGCIYVGSHVNTYYANWAKGQVTISADKSISTAYLQWSSLKASDTAMYYCATSGSSVLYFKFWGQGTLVTVSS
 | 3.24 nM | 3.24 nM | 0.000288 s⁻¹ | 88700 M⁻¹ s⁻¹ | Vκ2/VH6 consensus (uncapped), human IL23R specific scFv (scFv, scFv VL-linker-VH, made in E. coli; Vκ framework IV (uncapped, full consensus); also called Vκ2VH6 uncapped) scFv: DIVMTQSPLSLPVTPGEPASISCQASENIYSFLAWYLQKPGQSPQLLIYSASKLAAGVPDRFSGSGSGTDFTLKISRVEAEDVGVYYCQQTNRYSNPDIYNVFGQGTKVEIKRGGGGSGGGGSGGGGSGGGGSQVQLQQSGPGLVKPSQTLSLTCAISGIDFNSNYYMCWIRQSPGRGLEWLGCIYVGSHVNTYYANWAKGRITINPDTSKNQFSLQLNSVTPEDTAVYYCATSGSSVLYFKFWGQGTLVTVSS
 | 0.297 nM | 0.297 nM | 0.000479 s⁻¹ | 1.61e+06 M⁻¹ s⁻¹ | Vκ3/VH1A consensus (uncapped), human IL23R specific scFv (scFv, scFv VL-linker-VH, made in E. coli; Vκ framework IV (uncapped, full consensus); also called Vκ3VH1A uncapped) scFv: DIVLTQSPATLSLSPGERATLSCQASENIYSFLAWYQQKPGQAPRLLIYSASKLAAGVPARFSGSGSGTDFTLTISSLEPEDFAVYYCQQTNRYSNPDIYNVFGQGTKVEIKRGGGGSGGGGSGGGGSGGGGSQVQLVQSGAEVKKPGSSVKVSCKASGIDFNSNYYMCWVRQAPGQGLEWMGCIYVGSHVNTYYANWAKGRVTITADESTSTAYMELSSLRSEDTAVYYCATSGSSVLYFKFWGQGTLVTVSS
 | 0.455 nM | 0.455 nM | 0.000724 s⁻¹ | 1.59e+06 M⁻¹ s⁻¹ | Vκ3/VH1B consensus (uncapped), human IL23R specific scFv (scFv, scFv VL-linker-VH, made in E. coli; Vκ framework IV (uncapped, full consensus); also called Vκ3VH1B uncapped) scFv: DIVLTQSPATLSLSPGERATLSCQASENIYSFLAWYQQKPGQAPRLLIYSASKLAAGVPARFSGSGSGTDFTLTISSLEPEDFAVYYCQQTNRYSNPDIYNVFGQGTKVEIKRGGGGSGGGGSGGGGSGGGGSQVQLVQSGAEVKKPGASVKVSCKASGIDFNSNYYMCWVRQAPGQGLEWMGCIYVGSHVNTYYANWAKGRVTMTRDTSISTAYMELSSLRSEDTAVYYCATSGSSVLYFKFWGQGTLVTVSS
 | 0.462 nM | 0.462 nM | 0.000363 s⁻¹ | 786000 M⁻¹ s⁻¹ | Vκ3/VH2 consensus (uncapped), human IL23R specific scFv (scFv, scFv VL-linker-VH, made in E. coli; Vκ framework IV (uncapped, full consensus); also called Vκ3VH2 uncapped) scFv: DIVLTQSPATLSLSPGERATLSCQASENIYSFLAWYQQKPGQAPRLLIYSASKLAAGVPARFSGSGSGTDFTLTISSLEPEDFAVYYCQQTNRYSNPDIYNVFGQGTKVEIKRGGGGSGGGGSGGGGSGGGGSQVQLKESGPALVKPTQTLTLTCTFSGIDFNSNYYMCWIRQPPGKALEWLACIYVGSHVNTYYANWAKGRLTISKDTSKNQVVLTMTNMDPVDTATYYCATSGSSVLYFKFWGQGTLVTVSS

More lines, now with the values behind:

Binder | Ratio (capped/uncapped) of KD [1] | Kd [2] | Kd [3] | koff [3] | kon [3]
Vκ1/VH1A consensus λ-capped, human IL23R specific scFv (scFv, scFv VL-linker-VH, made in E. coli; also called Vκ1VH1A capped) scFv: DIQMTQSPSSLSASVGDRVTITCQASENIYSFLAWYQQKPGKAPKLLIYSASKLAAGVPSRFSGSGSGTDFTLTISSLQPEDFATYYCQQTNRYSNPDIYNVFGGGTKLTVLGGGGGSGGGGSGGGGSGGGGSQVQLVQSGAEVKKPGSSVKVSCKASGIDFNSNYYMCWVRQAPGQGLEWMGCIYVGSHVNTYYANWAKGRVTITADESTSTAYMELSSLRSEDTAVYYCATSGSSVLYFKFWGQGTLVTVSS | 8.3 | 0.166 nM | 0.166 nM | 0.000616 s⁻¹ | 3.71e+06 M⁻¹ s⁻¹
Vκ1/VH1B consensus λ-capped, human IL23R specific scFv (scFv, scFv VL-linker-VH, made in E. coli; also called Vκ1VH1B capped) scFv: DIQMTQSPSSLSASVGDRVTITCQASENIYSFLAWYQQKPGKAPKLLIYSASKLAAGVPSRFSGSGSGTDFTLTISSLQPEDFATYYCQQTNRYSNPDIYNVFGGGTKLTVLGGGGGSGGGGSGGGGSGGGGSQVQLVQSGAEVKKPGASVKVSCKASGIDFNSNYYMCWVRQAPGQGLEWMGCIYVGSHVNTYYANWAKGRVTMTRDTSISTAYMELSSLRSEDTAVYYCATSGSSVLYFKFWGQGTLVTVSS | 1.2 | 0.199 nM | 0.199 nM | 0.000478 s⁻¹ | 2.4e+06 M⁻¹ s⁻¹
Vκ1/VH3 consensus (uncapped), human IL23R specific scFv (scFv, scFv VL-linker-VH, made in E. coli; Vκ framework IV (uncapped, full consensus); also called Vκ1VH3 uncapped) scFv: DIQMTQSPSSLSASVGDRVTITCQASENIYSFLAWYQQKPGKAPKLLIYSASKLAAGVPSRFSGSGSGTDFTLTISSLQPEDFATYYCQQTNRYSNPDIYNVFGQGTKVEIKRGGGGSGGGGSGGGGSGGGGSEVQLVESGGGLVQPGGSLRLSCAASGIDFNSNYYMCWVRQAPGKGLEWVSCIYVGSHVNTYYANWAKGRFTISRDNSKNTLYLQMNSLRAEDTAVYYCATSGSSVLYFKFWGQGTLVTVSS |  | 0.0347 nM | 0.0347 nM | 5.28e-05 s⁻¹ | 1.52e+06 M⁻¹ s⁻¹
Vκ1/VH4 consensus (uncapped), human IL23R specific scFv (scFv, scFv VL-linker-VH, made in E. coli; Vκ framework IV (uncapped, full consensus); also called Vκ1VH4 uncapped) scFv: DIQMTQSPSSLSASVGDRVTITCQASENIYSFLAWYQQKPGKAPKLLIYSASKLAAGVPSRFSGSGSGTDFTLTISSLQPEDFATYYCQQTNRYSNPDIYNVFGQGTKVEIKRGGGGSGGGGSGGGGSGGGGSQVQLQESGPGLVKPSETLSLTCTVSGIDFNSNYYMCWIRQPPGKGLEWIGCIYVGSHVNTYYANWAKGRVTISVDTSKNQFSLKLSSVTAADTAVYYCATSGSSVLYFKFWGQGTLVTVSS |  | 0.0991 nM | 0.0991 nM | 0.000176 s⁻¹ | 1.78e+06 M⁻¹ s⁻¹
Vκ1/VH5 consensus (uncapped), human IL23R specific scFv (scFv, scFv VL-linker-VH, made in E. coli; Vκ framework IV (uncapped, full consensus); also called Vκ1VH5 uncapped) scFv: DIQMTQSPSSLSASVGDRVTITCQASENIYSFLAWYQQKPGKAPKLLIYSASKLAAGVPSRFSGSGSGTDFTLTISSLQPEDFATYYCQQTNRYSNPDIYNVFGQGTKVEIKRGGGGSGGGGSGGGGSGGGGSEVQLVQSGAEVKKPGESLKISCKGSGIDFNSNYYMCWVRQMPGKGLEWMGCIYVGSHVNTYYANWAKGQVTISADKSISTAYLQWSSLKASDTAMYYCATSGSSVLYFKFWGQGTLVTVSS |  | 0.239 nM | 0.239 nM | 0.000538 s⁻¹ | 2.25e+06 M⁻¹ s⁻¹
Vκ1/VH6 consensus (uncapped), human IL23R specific scFv (scFv, scFv VL-linker-VH, made in E. coli; Vκ framework IV (uncapped, full consensus); also called Vκ1VH6 uncapped) scFv: DIQMTQSPSSLSASVGDRVTITCQASENIYSFLAWYQQKPGKAPKLLIYSASKLAAGVPSRFSGSGSGTDFTLTISSLQPEDFATYYCQQTNRYSNPDIYNVFGQGTKVEIKRGGGGSGGGGSGGGGSGGGGSQVQLQQSGPGLVKPSQTLSLTCAISGIDFNSNYYMCWIRQSPGRGLEWLGCIYVGSHVNTYYANWAKGRITINPDTSKNQFSLQLNSVTPEDTAVYYCATSGSSVLYFKFWGQGTLVTVSS |  | 0.251 nM | 0.251 nM | 0.000309 s⁻¹ | 1.23e+06 M⁻¹ s⁻¹
Vκ2/VH1A consensus (uncapped), human IL23R specific scFv (scFv, scFv VL-linker-VH, made in E. coli; Vκ framework IV (uncapped, full consensus); also called Vκ2VH1A uncapped) scFv: DIVMTQSPLSLPVTPGEPASISCQASENIYSFLAWYLQKPGQSPQLLIYSASKLAAGVPDRFSGSGSGTDFTLKISRVEAEDVGVYYCQQTNRYSNPDIYNVFGQGTKVEIKRGGGGSGGGGSGGGGSGGGGSQVQLVQSGAEVKKPGSSVKVSCKASGIDFNSNYYMCWVRQAPGQGLEWMGCIYVGSHVNTYYANWAKGRVTITADESTSTAYMELSSLRSEDTAVYYCATSGSSVLYFKFWGQGTLVTVSS |  | 0.222 nM | 0.222 nM | 0.000279 s⁻¹ | 1.26e+06 M⁻¹ s⁻¹
Vκ2/VH1B consensus λ-capped, human IL23R specific scFv (scFv, scFv VL-linker-VH, made in E. coli; also called Vκ2VH1B capped) scFv: DIVMTQSPLSLPVTPGEPASISCQASENIYSFLAWYLQKPGQSPQLLIYSASKLAAGVPDRFSGSGSGTDFTLKISRVEAEDVGVYYCQQTNRYSNPDIYNVFGGGTKLTVLGGGGGSGGGGSGGGGSGGGGSQVQLVQSGAEVKKPGASVKVSCKASGIDFNSNYYMCWVRQAPGQGLEWMGCIYVGSHVNTYYANWAKGRVTMTRDTSISTAYMELSSLRSEDTAVYYCATSGSSVLYFKFWGQGTLVTVSS |  | 0.143 nM | 0.143 nM | 0.000326 s⁻¹ | 2.29e+06 M⁻¹ s⁻¹
Vκ2/VH2 consensus λ-capped, human IL23R specific scFv (scFv, scFv VL-linker-VH, made in E. coli; also called Vκ2VH2 capped) scFv: DIVMTQSPLSLPVTPGEPASISCQASENIYSFLAWYLQKPGQSPQLLIYSASKLAAGVPDRFSGSGSGTDFTLKISRVEAEDVGVYYCQQTNRYSNPDIYNVFGGGTKLTVLGGGGGSGGGGSGGGGSGGGGSQVQLKESGPALVKPTQTLTLTCTFSGIDFNSNYYMCWIRQPPGKALEWLACIYVGSHVNTYYANWAKGRLTISKDTSKNQVVLTMTNMDPVDTATYYCATSGSSVLYFKFWGQGTLVTVSS |  | 0.0741 nM | 0.0741 nM | 0.000102 s⁻¹ | 1.38e+06 M⁻¹ s⁻¹
Vκ2/VH3 consensus (uncapped), human IL23R specific scFv (scFv, scFv VL-linker-VH, made in E. coli; Vκ framework IV (uncapped, full consensus); also called Vκ2VH3 uncapped) scFv: DIVMTQSPLSLPVTPGEPASISCQASENIYSFLAWYLQKPGQSPQLLIYSASKLAAGVPDRFSGSGSGTDFTLKISRVEAEDVGVYYCQQTNRYSNPDIYNVFGQGTKVEIKRGGGGSGGGGSGGGGSGGGGSEVQLVESGGGLVQPGGSLRLSCAASGIDFNSNYYMCWVRQAPGKGLEWVSCIYVGSHVNTYYANWAKGRFTISRDNSKNTLYLQMNSLRAEDTAVYYCATSGSSVLYFKFWGQGTLVTVSS |  | 0.0236 nM | 0.0236 nM | 4.3e-05 s⁻¹ | 1.82e+06 M⁻¹ s⁻¹
